Test results published in publication PMC10073219.

Target: Drosophila melanogaster TRPA1, dTRPA1-A isoform (Drosophila melanogaster)
Experiment: cryo-EM structure; purified dTRPA1-A in 25 mM HEPES pH 7.4, 150 mM NaCl, 0.02% GDN; grids prepared at 8 °C; two conformations (state-1, 3.2 Å; state-2, 3.0 Å) from the same sample

stoichiometry N: 4
Substance: Drosophila melanogaster TRPA1, dTRPA1-A isoform (natural protein)
